Source: patent publication US7371529B2, “Methods and compositions for modulating gluconeogenesis using PGC-1” (Dana-Farber Cancer Institute, Inc., priority 2001, dated 2008)

Biological target: T1, FKHR (Homo sapiens, UniProt Q12778)
T1 construct: made in house; host or cells: in vitro translation
Assay: In vitro interaction with in vitro translated FKHR
Format: binding
Conditions: GST fusion constructs

T1 sequence (Q12778 whole entry, species assumed): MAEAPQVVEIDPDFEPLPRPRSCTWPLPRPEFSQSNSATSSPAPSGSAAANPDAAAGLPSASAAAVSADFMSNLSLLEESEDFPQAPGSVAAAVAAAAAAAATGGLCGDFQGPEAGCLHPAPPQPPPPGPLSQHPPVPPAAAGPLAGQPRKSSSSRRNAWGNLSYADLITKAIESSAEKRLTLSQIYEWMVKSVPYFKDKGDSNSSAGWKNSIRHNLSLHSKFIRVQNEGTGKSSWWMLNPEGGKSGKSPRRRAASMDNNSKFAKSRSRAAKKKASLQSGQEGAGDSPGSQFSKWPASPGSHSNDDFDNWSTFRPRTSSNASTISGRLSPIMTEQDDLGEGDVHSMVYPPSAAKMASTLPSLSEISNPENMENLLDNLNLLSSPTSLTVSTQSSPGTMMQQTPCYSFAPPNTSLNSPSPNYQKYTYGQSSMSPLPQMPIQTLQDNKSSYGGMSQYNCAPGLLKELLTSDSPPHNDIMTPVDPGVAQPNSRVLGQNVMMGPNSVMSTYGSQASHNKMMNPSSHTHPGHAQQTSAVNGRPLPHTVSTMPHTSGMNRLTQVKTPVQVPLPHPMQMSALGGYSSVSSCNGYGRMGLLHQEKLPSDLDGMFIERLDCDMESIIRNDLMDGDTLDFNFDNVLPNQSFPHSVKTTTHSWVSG

B1: GST-PGC-1 (amino acids 1-190): GST fusion protein of amino acids 1-190 of PGC-1 (SEQ ID NO:2) (protein)
chain: MAWDMCSQDSVWSDIECAALVGEDQPLCPDLPELDLSELDVNDLDTDSFLGGLKWCSDQSEIISNQYNNEPANIFEKIDEENEANLLAVLTETLDSLPVDEDGLPSFDALTDGAVTTDNEASPSSMPDGTPPPQEAEEPSLLKKLLLAPANTQLSYNECSGLSTQNHAANHTHRIRTNPAIVKTENSWSN
modifications: left off: a dimerising Fc or GST
**Q.** Which “physical interaction with FKHR” value does the source give for B1 here?
**A.** not
